The values below come from the RNAGym collection of RNA variant scans (doi:10.7554/elife.90254).

B1: LINE1-mini (parent)
chain: GGCAGAGCUCAACACAGCGUGGCAAAGUGGCUGUGGCUAGACUGCC

In this data set the parent is B1. The experiment in a line: self-cleavage, relative activity (ratio to wild type); higher = more cleavage; in vitro, sequencing; the parent is a self-cleaving ribozyme.
Take GGCAGACCUCAACACAGCGUGGCGAAGUGGCUGUGGCUAGACUGCC: the self-cleavage stood at 0.12.

As for GGCAGAACUCAACACAGCGUGGCAAAGUGGCUGUGGCUAGACUGAC, the self-cleavage was 0.19.

GGCAGAACUCAACACAGCGUGGCAAAGUGGCUGUGGCUAGACUGUC: the self-cleavage is 0.21.

As to GGCAGAACUCAACACAGCGUGGCAAAGUGGCUGUGGCUAGACUGGC, the self-cleavage worked out at 0.29.

Turning to GGCAGAACUCAACACAGCGUGGCAAAGUGACUGUGGCUAGACUGCC, the self-cleavage was found to be 0.24.

On to GGCAGAACUCAACACAGCGUGGCAAAGUGUCUGUGGCUAGACUGCC, for which the self-cleavage amounted to 0.24.

Consider GGCAGAACUCAACACAGCGUGGCAAAGUGCCUGUGGCUAGACUGCC, for which the self-cleavage was 0.42.

In the case of GGCAGAACUCAACACAGCGUGGCAAAGUGGCUGUGGCUAGACUUCC, the self-cleavage was 0.18.

As for GGCAGAACUCAACACAGCGUGGCAAAGUGGCUGUGGCUAGACUCCC, the self-cleavage is 0.28.

Turning to GGCAGAACUCAACACAGCGUGGCAAAGUGGCUGUGGCUAGACUACC, the self-cleavage was 0.19.

GGCAGAACUCAACACAGCGUGGCAAAGUGGCUGUGGCUAGACCGCC: the self-cleavage came out at 0.25.

Regarding GGCAGAACUCAACACAGCGUGGCAAAGUGGCUGUGGCUAGACAGCC, the self-cleavage was found to be 0.15.

As to GGCAGAACUCAACACAGCGUGGCAAAGUGGCUGUGGCUAGACGGCC, the self-cleavage turned out to be 0.57.

Take GGCAGACCUCAGCACAGCGUGGCAAAGUGGCUGUGGCUAGACUGCC: the self-cleavage turned out to be 0.06.

Consider GGCAGACCUCACCACAGCGUGGCAAAGUGGCUGUGGCUAGACUGCC, for which the self-cleavage turned out to be 0.03.

Take GGCAGACCUCAUCACAGCGUGGCAAAGUGGCUGUGGCUAGACUGCC: the self-cleavage is 0.07.

With GGCAGAACUCAAGACAGCGUGGCAAAGUGGCUGUGGCUAGACUGCC, the self-cleavage amounted to 0.26.

With GGCAGAACUCAAAACAGCGUGGCAAAGUGGCUGUGGCUAGACUGCC, the self-cleavage was 0.45.

Regarding GGCAGAACUCAAUACAGCGUGGCAAAGUGGCUGUGGCUAGACUGCC, the self-cleavage stood at 0.29.

As to GGCAGAACUCAACACAGCGUGGCAAAGUGGCUGUGGCUAUACUGCC, the self-cleavage stood at 0.27.

In the case of GGCAGAACUCAACACAGCGUGGCAAAGUGGCUGUGGCUACACUGCC, the self-cleavage amounted to 0.1.

For the variant GGCAGAACUCAACACAGCGUGGCAAAGUGGCUGUGGCUAAACUGCC, the self-cleavage came out at 0.19.

Consider GGCAGAACUCAACACAGCGUGGCAAAGUGGCUGGGGCUAGACUGCC, for which the self-cleavage turned out to be 0.14.

As for GGCAGAACUCAACACAGCGUGGCAAAGUGGCUGCGGCUAGACUGCC, the self-cleavage was 0.09.

As to GGCAGAACUCAACACAGCGUGGCAAAGUGGCUGAGGCUAGACUGCC, the self-cleavage was 0.1.

With GGCAGAACGCAACACAGCGUGGCAAAGUGGCUGUGGCUAGACUGCC, the self-cleavage came to 0.08.

In the case of GGCAGAACACAACACAGCGUGGCAAAGUGGCUGUGGCUAGACUGCC, the self-cleavage is 0.3.

On to GGCAGAACCCAACACAGCGUGGCAAAGUGGCUGUGGCUAGACUGCC, for which the self-cleavage was found to be 0.04.

With GGCAGAACUCAACACAGCGUGGCAAAGUGGUUGUGGCUAGACUGCC, the self-cleavage was found to be 0.08.

As to GGCAGAACUCAACACAGCGUGGCAAAGUGGGUGUGGCUAGACUGCC, the self-cleavage is 0.08.

Regarding GGCAGAACUCAACACAGCGUGGCAAAGUGGAUGUGGCUAGACUGCC, the self-cleavage is 0.21.

Regarding GGCAGACCUCAACACUGCGUGGCAAAGUGGCUGUGGCUAGACUGCC, the self-cleavage turned out to be 0.3.

For GGCAGACCUCAACACGGCGUGGCAAAGUGGCUGUGGCUAGACUGCC, the self-cleavage was 0.06.

With GGCAGACCUCAACACCGCGUGGCAAAGUGGCUGUGGCUAGACUGCC, the self-cleavage stood at 0.11.

As for GGCAGAACUCAACACAGCGUGGCAAAGUGGCUGUGCCUAGACUGCC, the self-cleavage was 0.27.

As for GGCAGAACUCAACACAGCGUGGCAAAGUGGCUGUGUCUAGACUGCC, the self-cleavage amounted to 0.12.

GGCAGAACUCAACACAGCGUGGCAAAGUGGCUGUGACUAGACUGCC: the self-cleavage was 0.43.

Take GGCAGAACUUAACACAGCGUGGCAAAGUGGCUGUGGCUAGACUGCC: the self-cleavage is 0.04.

As for GGCAGAACUCAACACAGCGUGGCAAAGUGGCUGUGGCUAGACUGCU, the self-cleavage came out at 0.32.

Take GGCAGAACUCAACACAGCGUGGCAAAGUGGCUGUGGCUAGACUGCG: the self-cleavage was determined as 0.36.

Consider GGCAGAACUCAACACAGCGUGGCAAAGUGGCUGUGGCUAGACUGCA, for which the self-cleavage worked out at 0.23.

Consider GGCAGAACUCAACACAGCGUGGCAAAUUGGCUGUGGCUAGACUGCC, for which the self-cleavage came to 0.16.

Turning to GGCAGAACUCAACACAGCGUGGCAAAAUGGCUGUGGCUAGACUGCC, the self-cleavage worked out at 0.06.

Consider GGCAGAACUCAACACAGCGUGGCAAACUGGCUGUGGCUAGACUGCC, for which the self-cleavage amounted to 0.18.

For the variant GGCAGACCUCAACACAGCGUGGCAACGUGGCUGUGGCUAGACUGCC, the self-cleavage is 0.6.

Turning to GGCAGACCUCAACACAGCGUGGCAAUGUGGCUGUGGCUAGACUGCC, the self-cleavage is 0.15.

With GGCAGACCUCAACACAGCGUGGCAAGGUGGCUGUGGCUAGACUGCC, the self-cleavage is 0.11.

As for GGCAGACCUCCACACAGCGUGGCAAAGUGGCUGUGGCUAGACUGCC, the self-cleavage stood at 0.04.

Turning to GGCAGACCUCGACACAGCGUGGCAAAGUGGCUGUGGCUAGACUGCC, the self-cleavage was found to be 0.03.

Consider GGCAGACCUCUACACAGCGUGGCAAAGUGGCUGUGGCUAGACUGCC, for which the self-cleavage is 0.04.

As to GGCAGAACUCAACACAGCGUUGCAAAGUGGCUGUGGCUAGACUGCC, the self-cleavage came to 0.24.

Turning to GGCAGAACUCAACACAGCGUCGCAAAGUGGCUGUGGCUAGACUGCC, the self-cleavage turned out to be 0.12.

For GGCAGAACUCAACACAGCGUAGCAAAGUGGCUGUGGCUAGACUGCC, the self-cleavage came out at 0.34.

For the variant GGCAGAACUCAACACAGUGUGGCAAAGUGGCUGUGGCUAGACUGCC, the self-cleavage was found to be 0.12.

Turning to GGCAGAACUCAACACAGAGUGGCAAAGUGGCUGUGGCUAGACUGCC, the self-cleavage worked out at 0.07.

Regarding GGCAGAACUCAACACAGGGUGGCAAAGUGGCUGUGGCUAGACUGCC, the self-cleavage was found to be 0.19.
